B1: Yod1-C160S (enzyme, human, UniProt Q5VVQ6 1-348, looked up)
chain: MFGPAKGRHFGVHPAPGFPGGVSQQAAGTKAGPAGAWPVGSRTDTMWRLRCKAKDGTHVLQGLSSRTRVRELQGQIAAITGIAPGGQRILVGYPPECLDLSNGDTILEDLPIQSGDMLIIEEDQTRPRSSPAFTKRGASSYVRETLPVLTRTVVPADNSSLFTSVYYVVEGGVLNPACAPEMRRLIAQIVASDPDFYSEAILGKTNQEYCDWIKRDDTWGGAIEISILSKFYQCEICVVDTQTVRIDRFGEDAGYTKRVLLIYDGIHYDPLQRNFPDPDTPPLTIFSSNDDIVLVQALELADEARRRRQFTDVNRFTLRCMVCQKGLTGQAEAREHAKETGHTNFGEV
notes: Yod1, human, with the active-site mutation C160S; also called homolog of Otu1; source: E. coli BL21 CodonPlus (DE3) RIPL, purified (Ni-NTA, SEC)
B2: UBXN7-SBP (natural protein, human, UniProt O94888 1-489, looked up)
chain: MAAHGGSAASSALKGLIQQFTTITGASESVGKHMLEACNNNLEMAVTMFLDGGGIAEEPSTSSASVSTVRPHTEEEVRAPIPQKQEILVEPEPLFGAPKRRRPARSIFDGFRDFQTETIRQEQELRNGGAIDKKLTTLADLFRPPIDLMHKGSFETAKECGQMQNKWLMINIQNVQDFACQCLNRDVWSNEAVKNIIREHFIFWQVYHDSEEGQRYIQFYKLGDFPYVSILDPRTGQKLVEWHQLDVSSFLDQVTGFLGEHGQLDGLSSSPPKKCARSESLIDASEDSQLEAAIRASLQETHFDSTQTKQDSRSDEESESELFSGSEEFISVCGSDEEEEVENLAKSRKSPHKDLGHRKEENRRPLTEPPVRTDPGTATNHQGLPAVDSEILEMPPEKADGVVEGIDVNGPKAQLMLRYPDGKREQITLPEQAKLLALVKHVQSKGYPNERFELLTNFPRRKLSHLDYDITLQEAGLCPQETVFVQERN
notes: UBXN7, human, wild type; also called SBP-tagged version of UBXN7; homolog of Ubx5; source: E. coli BL21 CodonPlus (DE3) RIPL, purified (Ni-NTA, SEC); not shown: SBP, C-terminal, kept
B3: Otu1-C120S-FLAG (enzyme, S. cerevisiae, UniProt P43558 1-301, looked up)
chain: MKLKVTGAGINQVVTLKQDATLNDLIEHINVDVKTMRFGYPPQRINLQGEDASLGQTQLDELGINSGEKITIESSDSNESFSLPPPQPKPKRVLKSTEMSIGGSGENVLSVHPVLDDNSSLFHAIAYGIFKQDSVRDLREMVSKEVLNNPVKFNDAILDKPNKDYAQWILKMESWGGAIEIGIISDALAVAIYVVDIDAVKIEKFNEDKFDNYILILFNGIHYDSLTMNEFKTVFNKNQPESDDVLTAALQLASNLKQTGYSFNTHKAQIKCNTCQMTFVGEREVARHAESTGHVDFGQNR
notes: Otu1, deubiquitinating enzyme of S. cerevisiae (Yod1 in mammals), with the active-site mutation C120S; pET28 with an N-terminal His6-tag and a TEV-protease cleavage site followed by a FLAG tag; source: E. coli BL21 CodonPlus (DE3) RIPL, purified (Ni-NTA, SEC)

How the values were obtained:
Settings in all cases: both partners purified
[1] = biological target: B2; experiment: pull-down; 1 µM UBXN7-SBP on streptavidin agarose with 1 µM p97, 1 µM human UN, 1 µM Yod1-C160S and 1 µM Ub(n)-TAIL, SEC buffer, 5 mM ATPγS, 1 h, 4 °C; eluted with 2 mM biotin; Coomassie
[2] = biological target: T1, Human p97 ATPase (human, UniProt P55072 1-806); experiment: as above
T1 construct: p97 (VCP), human, wild type; also called VCP; homolog of Cdc48; source: E. coli BL21 CodonPlus (DE3) RIPL, purified (Ni-NTA, SEC)
T1 sequence (P55072 whole entry): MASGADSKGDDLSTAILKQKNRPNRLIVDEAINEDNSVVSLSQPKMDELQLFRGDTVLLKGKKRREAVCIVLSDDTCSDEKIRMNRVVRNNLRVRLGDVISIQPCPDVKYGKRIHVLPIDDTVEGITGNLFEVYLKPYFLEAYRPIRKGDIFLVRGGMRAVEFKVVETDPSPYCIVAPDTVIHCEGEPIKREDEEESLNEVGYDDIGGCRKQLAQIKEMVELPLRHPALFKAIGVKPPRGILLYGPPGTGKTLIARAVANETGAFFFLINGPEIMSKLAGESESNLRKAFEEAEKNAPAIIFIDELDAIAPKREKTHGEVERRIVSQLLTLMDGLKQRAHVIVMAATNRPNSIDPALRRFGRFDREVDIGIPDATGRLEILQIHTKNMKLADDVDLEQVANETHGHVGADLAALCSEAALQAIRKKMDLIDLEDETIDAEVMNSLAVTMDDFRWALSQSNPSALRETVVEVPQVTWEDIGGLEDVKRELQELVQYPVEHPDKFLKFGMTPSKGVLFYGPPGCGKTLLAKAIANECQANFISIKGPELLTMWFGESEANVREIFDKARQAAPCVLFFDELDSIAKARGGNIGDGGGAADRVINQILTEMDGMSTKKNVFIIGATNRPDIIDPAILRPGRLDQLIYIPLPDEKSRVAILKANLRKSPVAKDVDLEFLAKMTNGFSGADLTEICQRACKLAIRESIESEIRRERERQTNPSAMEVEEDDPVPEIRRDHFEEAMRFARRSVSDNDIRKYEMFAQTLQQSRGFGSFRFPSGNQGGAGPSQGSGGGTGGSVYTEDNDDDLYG

[3] = biological target: T2, human Npl4 (human, UniProt Q8TAT6 1-608); experiment: as above
T2 construct: Npl4, human; The plasmid paragraph tells of Npl4 in pET21 with a C-terminal His6 or FLAG-His6 tag and the purification paragraph of an untagged UN complex; neither says which holds for the human protein; also called hNpl4; source: purified; part of the 'human UN' complex
T2 sequence (Q8TAT6 whole entry): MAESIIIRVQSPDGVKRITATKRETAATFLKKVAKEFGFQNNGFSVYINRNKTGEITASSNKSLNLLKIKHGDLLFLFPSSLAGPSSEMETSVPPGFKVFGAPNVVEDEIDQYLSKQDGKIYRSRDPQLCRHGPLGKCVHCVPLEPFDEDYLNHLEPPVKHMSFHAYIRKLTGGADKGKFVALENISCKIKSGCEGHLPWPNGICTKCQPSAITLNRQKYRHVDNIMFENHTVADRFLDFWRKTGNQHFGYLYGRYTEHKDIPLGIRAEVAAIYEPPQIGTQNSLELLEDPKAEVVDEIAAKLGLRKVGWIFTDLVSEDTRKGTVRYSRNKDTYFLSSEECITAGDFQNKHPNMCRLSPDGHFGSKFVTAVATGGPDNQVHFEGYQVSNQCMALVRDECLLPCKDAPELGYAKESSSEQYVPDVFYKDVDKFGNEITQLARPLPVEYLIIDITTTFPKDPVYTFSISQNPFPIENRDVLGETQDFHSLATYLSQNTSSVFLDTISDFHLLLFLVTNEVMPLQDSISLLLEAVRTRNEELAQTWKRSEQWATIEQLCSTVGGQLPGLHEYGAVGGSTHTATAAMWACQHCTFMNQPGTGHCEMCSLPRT

[4] = biological target: T3, Cdc48-UN ATPase complex (S. cerevisiae, UniProt P25694 1-835; P53044 1-361; P33755 1-580); experiment: pull-down; 1 µM Otu1-C120S-FLAG on anti-FLAG M2 agarose with 1 µM Cdc48, 1 µM UN and 1 µM Ub(n)-TAIL, with or without 1 µM Ubx5, SEC buffer, 5 mM ATPγS, 1 h, 4 °C; eluted with 3xFLAG peptide; fluorescence scan and Coomassie
T3 construct: Cdc48 ATPase of S. cerevisiae, wild type; Ufd1 of S. cerevisiae; Npl4 of S. cerevisiae; also called Cdc48 with the Ufd1-Npl4 (UN) complex; source: E. coli BL21 CodonPlus (DE3) RIPL, purified (Ni-NTA, SEC); Cdc48 and UN mixed; copies: 6 + +
T3 sequence (P25694 whole entry, chain 1 of 3): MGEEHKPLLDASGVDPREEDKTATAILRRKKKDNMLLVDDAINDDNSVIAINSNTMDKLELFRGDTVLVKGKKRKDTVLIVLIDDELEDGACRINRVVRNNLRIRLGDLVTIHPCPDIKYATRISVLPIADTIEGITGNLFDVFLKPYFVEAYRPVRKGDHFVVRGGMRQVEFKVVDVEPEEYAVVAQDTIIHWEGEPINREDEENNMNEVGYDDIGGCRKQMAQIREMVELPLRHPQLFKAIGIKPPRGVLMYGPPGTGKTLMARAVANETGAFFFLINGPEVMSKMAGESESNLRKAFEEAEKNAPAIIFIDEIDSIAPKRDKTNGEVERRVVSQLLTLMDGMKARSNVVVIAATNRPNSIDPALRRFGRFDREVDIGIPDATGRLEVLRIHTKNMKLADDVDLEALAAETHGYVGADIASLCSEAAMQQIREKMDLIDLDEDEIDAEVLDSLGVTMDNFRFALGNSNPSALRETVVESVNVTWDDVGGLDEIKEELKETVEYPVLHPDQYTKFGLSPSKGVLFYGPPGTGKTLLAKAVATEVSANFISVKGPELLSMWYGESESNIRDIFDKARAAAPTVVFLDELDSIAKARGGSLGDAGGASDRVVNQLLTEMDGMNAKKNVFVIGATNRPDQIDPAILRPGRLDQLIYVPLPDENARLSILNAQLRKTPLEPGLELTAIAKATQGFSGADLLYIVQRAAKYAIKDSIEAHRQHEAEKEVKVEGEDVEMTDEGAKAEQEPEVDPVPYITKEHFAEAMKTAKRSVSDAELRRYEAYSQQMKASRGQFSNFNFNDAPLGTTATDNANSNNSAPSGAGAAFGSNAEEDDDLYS
T3 sequence (P53044 whole entry, chain 2 of 3): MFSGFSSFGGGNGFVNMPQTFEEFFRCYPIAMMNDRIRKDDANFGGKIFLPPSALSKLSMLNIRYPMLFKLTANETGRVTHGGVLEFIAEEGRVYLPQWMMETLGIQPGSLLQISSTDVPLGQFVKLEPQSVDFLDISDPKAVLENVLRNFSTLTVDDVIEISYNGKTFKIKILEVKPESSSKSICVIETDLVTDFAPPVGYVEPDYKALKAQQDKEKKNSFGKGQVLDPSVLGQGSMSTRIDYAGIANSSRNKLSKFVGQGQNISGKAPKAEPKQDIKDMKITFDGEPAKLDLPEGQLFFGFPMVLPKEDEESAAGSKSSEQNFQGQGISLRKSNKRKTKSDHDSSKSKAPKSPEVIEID
T3 sequence (P33755 whole entry, chain 3 of 3): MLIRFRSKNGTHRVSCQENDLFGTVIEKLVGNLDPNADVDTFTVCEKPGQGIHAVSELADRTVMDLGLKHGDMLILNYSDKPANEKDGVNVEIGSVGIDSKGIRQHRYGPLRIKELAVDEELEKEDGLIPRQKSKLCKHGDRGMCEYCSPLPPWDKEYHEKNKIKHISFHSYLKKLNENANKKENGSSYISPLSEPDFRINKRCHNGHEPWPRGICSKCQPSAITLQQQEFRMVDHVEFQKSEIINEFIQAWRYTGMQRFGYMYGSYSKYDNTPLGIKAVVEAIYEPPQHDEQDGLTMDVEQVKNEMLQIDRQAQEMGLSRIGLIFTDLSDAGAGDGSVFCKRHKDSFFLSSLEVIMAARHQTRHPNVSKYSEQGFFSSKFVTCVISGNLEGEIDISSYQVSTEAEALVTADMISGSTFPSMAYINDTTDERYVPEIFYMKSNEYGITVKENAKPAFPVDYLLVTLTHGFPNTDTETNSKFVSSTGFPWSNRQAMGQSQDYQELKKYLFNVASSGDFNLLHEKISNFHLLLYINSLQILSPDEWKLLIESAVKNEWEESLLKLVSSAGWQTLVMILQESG

Binder: B1
binding result [1]: binds

Binder: B2
binding result [2]: binds | binding result [3]: binds

Binder: B3
binding result [4]: binds

— publication PMC13087191 (Scientific Reports, 2026)
